Target: the molecule itself
Assay: SEC

B1: dolphin Prestin (SLC26A5) (natural protein)
chain: MDHVEETEILAATQRYYVERPIFSHPVLQERLHKKDKISESIGDKLKQAFTCTPKKIRNIIYMFLPITKWLPAYRFKEYVLGDIVSGISTGVLQLPQGLAFAMLAAVPPVFGLYSSFYPVIMYCFFGTSRHISIGPFAVISLMIGGVAVRLVPDDIVIPGGVNATNSTEARDALRVKVAMSVTLLTGIIQFCLGVCRFGFVAIYLTEPLVRGFTTAAAVHVFTSMLKYLFGVKTKRYSGIFSVVYSTVAVLQNVKNLNVCSLGVGLMVFGLLLGGKEFNERFKEKLPAPIPLEFFAVVMGTGISAGFSLHESYNVDVVGTLPLGLLPPANPDTSLFHLVYVDAIAIAIVGFSVTISMAKTLANKHGYQVDGNQELIALGLCNSTGSLFQTFAISCSLSRSLVQEGTGGKTQLAGCLASLMILLVILATGFLFESLPQAVLSAIVIVNLKGMFMQFSDLPFFWRTSKIELTIWLTTFVSSLFLGLDYGLITAVIIALMTVIYRTQSPSYIVLGQLPDTDVYIDIDAYEEVKEVPGIKIFQINAPIYYANSDLYSSALKRKTGVNPAFILGARRKAMKKYAKEVGNANMANATVVKVDAEVDAEDGTKPEEEEDEIKYPPIVTKSTLPEELQRFMPPGDNVHTIILDFTQVNFMDSVGVKTLAGIVKEYGDVGIYVYLAGCSAQVVSDLTQNQFFENPALLDLLFHSIHDAVLGSQVREALAEQEATAAPPQEDSEPNATPEA
stoichiometry N: 2

— article doi:10.1101/2021.08.06.455374 (bioRxiv, 2021)
